Laboratory results reported in US20170037149A1 (Amgen, published 2017).

B1: FL-47 scFv (scFv)
scFv: QVTLKESGPALVKPTQTLTLTCTFSGFSLSNARMGVSWIRQPPGKCLEWLAHIFSNDEKSYSTSLKSRLTISKDTSKSQVVLTMTDMDPEDTATYYCARIVGYGTGWYGFFDYWGQGILVTVSSGGGGSGGGGSGGGGSDIQMTQSPSSLSASVGDRVTITCRTSQGIRNDLGWYQQKPGKAPKRLIYAASSLQSGVPSRFSGSGSGTEFTLTISSLQPEDFATYYCLQHNSYPLTFGCGTKVEIK
notes: periplasmic prep
B2: FL-46 scFv (scFv)
scFv: QVTLKESGPVLVKPTQTLTLTCTFSGFSLSNARMGVSWIRQPPGKCLEWLALIYWNDDKRYSPSLKSRLTITKDTSKNQVVLTMTNMDPVDTATYYCARMVGYGSGWYAYFDYWGQGTLVTVSSGGGGSGGGGSGGGGSDIQMTQSPSSLSASVGDRVTITCRASQGIRNDLGWYQQKPGKAPKRLIYAASSLQSGVPSRFSGSGSGTEFTLTISSLQPEDFATYYCLQHNSYPLTFGCGTKVEIK
notes: periplasmic prep
B3: FL-14 scFv (scFv)
scFv: QVTLKESGPALVKPTETLTLTCTLSGFSLNNARMAVSWIRQPPGKTLEWLAHIFSNDEKSYSTSLKSRLTISKDTSKGQVVLTMTNMDPVDTATYYCARIVGYGSGWYGYFDYWGQGTLVTVSSGGGGSGGGGSGGGGSDIQMTQSPSSLSASVGDRVTITCRASQDIRNDLGWYQQKPGKAPKRLIYAASTLQSGVPSRFSGSGSGTEFTLTISSLQPEDFATYYCLQHNSYPLTFGGGTKVEIK
notes: periplasmic prep
B4: FL-13 scFv (scFv)
scFv: QVTLKESGPTLVKPTETLTLTCTLSGFSLNNARMGVSWIRQPPGKALEWLAHIFSNDEKSYSTSLKNRLTISKDSSKTQVVLTMTNVDPVDTATYYCARIVGYGSGWYGFFDYWGQGTLVTVSSGGGGSGGGGSGGGGSDIQMTQSPSSLSASVGDRVTITCRASQGIRNDLGWYQQKPGKAPKRLIYAASTLQSGVPSRFSGSGSGTEFTLTISSLQPEDFATYYCLQHNSYPLTFGGGTKVEIK
notes: periplasmic prep
B5: FL-20 scFv (scFv)
scFv: QVTLKESGPALVKPTETLTLTCTLSGFSLNNARMAVSWIRQPPGKTLEWLAHIFSNDEKSYSTSLKSRLTISKDTSKSQVVLTMTNMDPEDTATYYCARIVGYGTGWYGFFDYWGQGILVTVSSGGGGSGGGGSGGGGSDIQMTQSPSSLSASVGDRVTITCRASQGIRNDLAWYQQKPGKAPKRLIYAASSLQSGVPSRFSGSGSGTEFTLTISSLQPEDFATYYCLQHNSYPLTFGGGTKVEIK
notes: periplasmic prep
B6: FL-15 scFv (scFv)
scFv: QVTLKESGPALVKPTETLTLTCTLSGFSLNNARMAVSWIRQPPGKTLEWLAHIFSNDEKSYSTSLKSRLTISKDTSKGQVVLTMTNMDPVDTATYYCARIVGYGSGWYGYFDYWGQGTLVTVSSGGGGSGGGGSGGGGSDIQMTQSPSSLSASVGDRVTITCRASQDIGNDLGWYQQKPGKAPKRLIYAASSLQSGVPSRFSGSGSGTEFTLTISSLQPEDFATYYCLQHNSYPLTFGGGTKVEIK
notes: periplasmic prep
B7: FL-16 scFv (scFv)
scFv: QVTLKESGPVLVKPTETLTLTCTVSGFSLRNARMAVSWIRQPPGKTLEWLAHIFSNDEKSYSTSLKSRLTISKDTSKSQVVLTMTNMDPVDTATYYCARIVGYGSGWYGYFDYWGQGTLVTVSSGGGGSGGGGSGGGGSDIQMTQSPSSVSASVGDRVTITCRASQDIRYDLAWYQQKPGKAPKRLIYAASSLQSGVPSRFSGSGSGTEFTLTISSLQPEDFATYYCLQHNFYPLTFGGGTKVEIK
notes: periplasmic prep
B8: FL-6 scFv (scFv)
scFv: QVTLKESGPTLVKPTETLTLTCTLSGFSLNNARMAVSWIRQPPGKTLEWLAHIFSNDEKSYSPSLKSRLTISKDTSKSQVVLTMTNMDPEDTATYYCARIVGYGTGWYGFFDYWGQGILVTVSSGGGGSGGGGSGGGGSDIQMTQSPSSLSASVGDRVTITCRASQGIRNDLGWFQQKPGKAPKRLIYAASVLQSGVPSRFSGSGSGTEFTLTISSLQPEDFATYYCLQHNSYPLTFGGGTKVDIK
notes: periplasmic prep
B9: FL-45 scFv (scFv)
scFv: QVTLKESGPALVKPTQTLTLTCTFSGFSLSNARMGVSWIRQPPGKCLEWLAHIFSNDEKSYRTSLKSRLTISKDTSKSQVVLTMTNMDPVDTATYYCARIVGYGSGWYAYFDYWGQGTLVTVSSGGGGSGGGGSGGGGSDIQMTQSPSSLSASVGDRVTITCRASQGIRNDLGWYQQKPGKAPKRLIYAASSLQSGVPSRFSGSGSGTEFTLTISSLQPEDFATYYCLQHNSYPLTFGCGTKVEIK
notes: periplasmic prep
B10: FL-4 scFv (scFv)
scFv: QVTLKESGPALVKPTETLTLTCTLSGFSLNNAKMGVSWIRQPPGKALEWLAHIFSNDEKSYSTSLKSRLTISKDTSKGQVVLTMTNMDPVDTATYYCARIVGYGSGWYGYFDYWGQGTLVTVSSGGGGSGGGGSGGGGSDIQMTQSPSSLSASVGDRVTITCRASQDIRDDLGWYQQKPGNAPKRLIYGASTLQSGVPSRFSGSGSGTEFTLTISSLQPEDFATYYCLQHNSYPLTFGGGTKVDIK
notes: periplasmic prep
B11: FL-42 scFv (scFv)
scFv: QVTLKESGPALVKPTETLTLTCTLSGFSLNNARMAVSWIRQPPGKCLEWLAHIFSNDEKSYSTSLKSRLTISKDTSKSQVVLTMTNMDPEDTATYYCARIVGYGTGWYGFFDYWGQGILVTVSSGGGGSGGGGSGGGGSDIQMTQSPSSLSASVGDRVTITCRASQGIRNDLAWYQQKPGKAPKRLIYAASSLQSGVPSRFSGSGSGTEFTLTISSLQPEDFATYYCLQHNSYPLTFGCGTKVEIK
notes: periplasmic prep
B12: FL-33 scFv (scFv)
scFv: QVTLKESGPVLVKPTETLTLTCTVSGFSLRNARMGVSWIRQPPGKTLEWLAHIFSNDEKSYSTSLKSRLTISKDTSKGQVVLTMTNMDPVDTATYYCARIVGYGSGWYGYFDYWGQGTLVTVSSGGGGSGGGGSGGGGSDIQMTQSPSSLSASVGDRVTITCRASQGIGDDLGWYQQIPGKAPKRLIYATSVLQSGVPSRFSGSGSGTEFTLTISSLQPEDFATYYCLQHNSYPLTFGGGTKLEIK
notes: periplasmic prep
B13: FL-11 scFv (scFv)
scFv: QVTLKESGPVLVKPTETLTLTCTLSGFSLNNAKMGVSWIRQPPGKALEWLAQIFSNGEKSYSTSLKSRLTISKDTSKGQVVLTMTNMDPVDTATYYCSRIVGYGSGWYGYFDYWGQGTLVTVSSGGGGSGGGGSGGGGSDIQMTQSPSSLSASVGDRVTITCRASQGIRNDLGWYQQKPGKAPKRLIYGASTLQSGVPSRFSGSGSGTEFTLTISSLQPEDFATYYCLQHNSYPLTFGGGTKVEIK
notes: periplasmic prep
B14: FL-32 scFv (scFv)
scFv: QVTLKESGPTLVKPTETLTLTCTVSGFSFRNARMGVSWIRQPPGKALEWLAHIFSNDEKSYSTSLKSRLTISKDTSKGQVVLTMTNMDPVDTATYYCARIVGYGSGWYGYFDYWGQGTLVTVSSGGGGSGGGGSGGGGSDIQMTQSPSSLSASVGDRVTITCRASQGIRNDLVWYQQKPGKAPKRLIYAASTLQSGVPSRFSGSGSGTEFILTISSLQPEDFATYFCLQHYSYPLTFGGGTKLEIK
notes: periplasmic prep
B15: FL-29 scFv (scFv)
scFv: QVTLKESGPALVKPTQTLTLTCTFSGFSLSNARMGVSWIRQPPGKALEWLAHIFSNDEKSYRTSLKSRLTISKDTSKSQVVLTMTNMDPVDTATYYCARIVGYGSGWYAYFDYWGQGTLVTVSSGGGGSGGGGSGGGGSDIQMTQSPSSLSASVGDRVTITCRASQGIRNDLGWYQQKPGKAPKRLIYAASSLQSGVPSRFSGSGSGTEFTLTISSLQPEDFATYYCLQHNSYPLTFGGGTKVEIK
notes: periplasmic prep
B16: FL-12 scFv (scFv)
scFv: QVTLKESGPALVKPTETLTLTCTVSGFSLSNARMGVSWIRQPPGKALEWLANIFSNDEKSYSTSLKSRLTISKGTSKSQVVLTMTNMDPEDTATYYCARIVGYGSGWYGYFDYWGQGTLVTVSSGGGGSGGGGSGGGGSDIQMTQSPSSLSASVGDRVTITCRASQGIRNDLGWYQQKPGKAPQRLIYAASSLQSGVPSRFSGSGSGTEFTLTISSLQPEDFATYYCLQHNSYPLTFGGGTKVEIK
notes: periplasmic prep
B17: FL-39 scFv (scFv)
scFv: QVTLKESGPTLVKPTETLTLTCTLSGFSLNNARMGVSWIRQPPGKCLEWLAHIFSNDEKSYSTSLKNRLTISKDSSKTQVVLTMTNVDPVDTATYYCARIVGYGSGWYGFFDYWGQGTLVTVSSGGGGSGGGGSGGGGSDIQMTQSPSSLSASVGDRVTITCRASQGIRNDLGWYQQKPGKAPKRLIYAASTLQSGVPSRFSGSGSGTEFTLTISSLQPEDFATYYCLQHNSYPLTFGCGTKVEIK
notes: periplasmic prep
B18: FL-5 scFv (scFv)
scFv: QVTLKESGPMLVKPTETLTLTCTFSGFSLRNARMGVSWIRQPPGKALEWLAHIFWNDEKSYSTSLKSRLTISKDTSKSQVVLTMTNMDPVDTATYYCARIPYYGSGSYNYGMDVWGQGTTVTVSSGGGGSGGGGSGGGGSDIQMTQSPSSLSASVGDRVTITCRASQGIRNDLGWYQQKPGKAPKRLIYAASSLQSGVPSRFSGSGSGTEFTLTISSLQPEDFATYYCLQHNTYPLTFGGGTKVDIK
notes: periplasmic prep
B19: FL-34 scFv (scFv)
scFv: QVTLKESGPALVKPTETLTLTCTFSGFSLRNARMGVSWIRQPPGKALEWLAHIFWNDEKSYSTSLKSRLTISKDTSKSQVVLTMTNMDPVDTATYYCARIPYYGSGSYNYGMDVWGQGTTVTVSSGGGGSGGGGSGGGGSDIQMTQSPSSLSASVGDRVTITCRASQGIRNDLGWYQQKPGKAPKRLIYAASSLQSGVPSRFSGSGSGTEFTLTISSLQPEDFATYYCLQHNSYPLTFGGGTKLEIK
notes: periplasmic prep
B20: FL-59 scFv (scFv)
scFv: QVTLKESGPMLVKPTETLTLTCTVSGFSLRNVRMGVSWIRQPPGKALEWLAHIFSNDEKSYSTSLKSRLTISKDTSKSQVVLTLTNMDPVDTATYFCARMPEYSSGWSGAFDIWGQGTMVTVSSGGGGSGGGGSGGGGSDIQMTQSPSSLSASVGDRVTITCRASQDIRDDLGWYQQKPGNAPKRLIYGASTLQSGVPSRFSGSGSGTEFTLTISSLQPEDFATYYCLQHNSYPLTFGGGTRLEIK
notes: periplasmic prep

Molecular target: T1, human FLT3 (human, UniProt P36888 27-993)
T1 construct: On transfected CHO cells, or on the FLT3 positive human AML cell lines EOL-1 / MV4-11 where the row says so; also called hu FLT3; full length human FLT3
Assay: FACS, scFv on CHO-human FLT3 pre-incubated with FLT3 ligand (competitor)
Method: The detection was performed using mouse anti-FLAG+PE-conjugated goat anti-mouse and the Fluorescence median detected by FACS (median (+ligand)/median (w/o ligand)*100%)
Afterwards cells were not washed but directly stained with FLT3 binder (scFv's). […] As negative control, cells were incubated with an unspecific scFv instead of FLT3 scFv.
For the evaluation of the data, the fluorescence median was detected by FACS.

Row | Binder | median [+ligand]/median [w/o ligand]*100 [%]
1 | B1 | ≥ 75
2 | B2 | ≥ 75
3 | B3 | ≥ 75
4 | B4 | ≥ 75
5 | B5 | ≥ 75
6 | B6 | ≥ 75
7 | B7 | ≥ 75
8 | B8 | ≥ 75
9 | B9 | ≥ 75
10 | B10 | ≥ 75
11 | B11 | ≥ 75
12 | B12 | ≥ 75
13 | B13 | ≥ 75
14 | B14 | ≥ 75
15 | B15 | ≥ 75
16 | B16 | ≥ 75
17 | B17 | ≥ 75
18 | B18 | ≥ 75
19 | B19 | ≥ 75
20 | B20 | ≥ 75
